The values below come from patent publication US20230212549A1 (3B PHARMACEUTICALS, published 2023).

Numbered stars: 1 amine (or outer) side, 2 acyl side, 3 side chain; on linkers, the order of the positions; unused ones are H or OH. Bridge positions count the residues as written; N and C are the ends. Square brackets hold non-standard residues; d marks the D form. Primed or numbered codes have the meaning given here. * marks the point of attachment. tMeBn(DOTA-AET) = 1,3,5-trimethylbenzylidene (from 1,3,5-tris(bromomethyl)benzene), two thioethers to Cys, third CH2 bears 2-aminoethanethiol via S, its amine acylated by DOTA; Ttds″ = 1,13-diamino-4,7,10-trioxatridecan-succinamic acid spacer, O=C(CCC(=O)[*:2])NCCCOCCOCCOCCCN[*:1]; Ttds = 1,13-diamino-4,7,10-trioxatridecan-succinamic acid, O=C(CCC(=O)[*:2])NCCCOCCOCCOCCCN[*:1]; 3MeBn = 3-Methylbenzylidene (m-xylylene thioether bridge from α,α′-dibromo-m-xylene); Ttds(4) = spacer between chelator and peptide, O=C(CCC(=O)[*:2])NCCCOCCOCCOCCCN[*:1]; N4Ac = 6-Carboxy-1,4,8,11-tetraazaundecane, an N4-chelator, NCCNCC(CNCCN)C(=O)*; 3MeBn(3) = 3-methylbenzylidene (m-xylylene), from α,α′-dibromo-m-xylene; DOTA = O=C(O)CN1CCN(CC(=O)O)CCN(CC(=O)*)CCN(CC(=O)O)CC1; mXylylene = c1cc(C[*:1])cc(C[*:2])c1; NMeF = CN[C@@H](Cc1ccccc1)C(=O)O; AGLU′ = not defined here; Nle = CCCC[C@H](N)C(=O)O; PEG6′ = not defined here; Hexanoyl = CCCCCC(=O)*

Experiment [1] addresses T1, human fibroblast activating protein (FAP) on WI-38 fibroblasts (human, UniProt Q12884 1-760).
T1 construct: FAP-expressing human WI-38 fibroblasts (ECACC)
Briefly: competitive FACS on WI-38 cells vs 3 nM Cy5-labeled peptide; pIC50 category B = 7.1-8.0.

The target of experiment [2] is T2, human fibroblast activation protein (FAP) on WI-38 fibroblasts (human, UniProt Q12884 1-760).
T2 construct: FAP-expressing human WI-38 fibroblasts (ECACC)
Briefly: competitive FACS, WI-38 cells, Cy5-labeled peptide as competitor; B = pIC50 7.1 to 8.0.

Experiment [3] deals with T3, recombinant human PREP (R&D systems, #4308-SE) (human, UniProt P48147 1-710).
T3 sequence: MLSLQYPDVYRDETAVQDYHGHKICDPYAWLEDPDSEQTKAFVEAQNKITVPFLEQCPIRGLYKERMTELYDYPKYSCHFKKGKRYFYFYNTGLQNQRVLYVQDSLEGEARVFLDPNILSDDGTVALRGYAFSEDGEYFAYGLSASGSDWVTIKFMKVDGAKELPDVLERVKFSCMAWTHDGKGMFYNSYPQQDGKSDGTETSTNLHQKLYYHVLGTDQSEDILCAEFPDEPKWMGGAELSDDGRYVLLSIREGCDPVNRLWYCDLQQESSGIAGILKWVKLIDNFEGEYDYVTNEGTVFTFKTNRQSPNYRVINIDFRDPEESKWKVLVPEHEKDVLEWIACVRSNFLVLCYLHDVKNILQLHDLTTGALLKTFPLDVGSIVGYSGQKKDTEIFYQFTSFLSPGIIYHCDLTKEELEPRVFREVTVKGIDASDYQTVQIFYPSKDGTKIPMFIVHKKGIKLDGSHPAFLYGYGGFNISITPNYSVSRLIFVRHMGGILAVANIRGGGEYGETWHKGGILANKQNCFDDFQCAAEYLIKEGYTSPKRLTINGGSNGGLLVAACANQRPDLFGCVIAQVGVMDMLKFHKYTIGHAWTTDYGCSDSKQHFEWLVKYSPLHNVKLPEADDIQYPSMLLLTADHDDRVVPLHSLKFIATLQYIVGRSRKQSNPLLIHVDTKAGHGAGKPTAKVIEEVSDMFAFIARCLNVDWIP
Briefly: cell-based or functional assay.

In experiment [4] the target is Recombinant human DPP4 (R&D systems, #9168-SE) (human, UniProt P27487 29-766). Briefly: cell-based or functional assay.
Experiment [5] addresses T4, Recombinant human FAP (R&D systems, #3715-SE) (human, UniProt Q12884 26-760).
T4 construct: bought; in SPR captured on immobilized anti-FAP antibody MAB3715; also called rhFAP; human recombinant FAP
Briefly: SPR (Biacore T200), FAP captured on anti-FAP antibody, single cycle kinetics.

Experiment [6] concerns the target T4, Recombinant human FAP (R&D systems, …). Briefly: cell-based or functional assay.

Chain of Recombinant human DPP4 (R&D systems, #9168-SE) (P27487 29-766 limits assumed): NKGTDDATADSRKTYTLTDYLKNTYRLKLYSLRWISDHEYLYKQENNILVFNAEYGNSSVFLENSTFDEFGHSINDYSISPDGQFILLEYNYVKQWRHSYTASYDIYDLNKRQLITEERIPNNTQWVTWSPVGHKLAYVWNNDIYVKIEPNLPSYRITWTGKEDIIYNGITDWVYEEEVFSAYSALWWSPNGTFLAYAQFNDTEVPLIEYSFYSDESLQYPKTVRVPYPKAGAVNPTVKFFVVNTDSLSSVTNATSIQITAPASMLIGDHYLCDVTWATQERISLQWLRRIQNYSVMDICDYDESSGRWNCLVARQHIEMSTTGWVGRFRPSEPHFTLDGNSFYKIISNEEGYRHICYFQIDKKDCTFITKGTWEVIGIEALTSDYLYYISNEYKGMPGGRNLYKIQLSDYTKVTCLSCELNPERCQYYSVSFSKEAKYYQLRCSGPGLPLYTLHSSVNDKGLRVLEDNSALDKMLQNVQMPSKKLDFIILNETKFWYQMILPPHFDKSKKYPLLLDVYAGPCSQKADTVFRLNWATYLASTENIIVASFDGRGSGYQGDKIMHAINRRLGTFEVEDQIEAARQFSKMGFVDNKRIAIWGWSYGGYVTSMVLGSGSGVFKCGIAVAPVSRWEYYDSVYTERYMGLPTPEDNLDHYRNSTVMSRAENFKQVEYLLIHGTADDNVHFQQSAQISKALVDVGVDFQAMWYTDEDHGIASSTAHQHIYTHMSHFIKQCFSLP

As for {N4Ac-PEG6′-Ttds(4)}-[Nle]CPPTEFC-OH (linker 2-8 via 3MeBn, also called 3BP-4780) [N4Ac-PEG6-Ttds-Nle-[C(3MeBn)-PPTEFC]-OH], in experiment [1], the pIC50 lay within 7.1 to 8 pic50. Consider {DOTA}-[Ttds][Nle]CPPTQFCD[Ttds]K(DOTA)-NH2 (linker 3-9 via tMeBn(DOTA-AET), also called 3BP-4392) [DOTA-Ttds-Nle-[Cys(tMeBn(DOTA-AET))-Pro-Pro-Thr-Gln-Phe-Cys]-Asp-Ttds-Lys(DOTA)-NH2], for which the pIC50 in experiment [2] lay within 7.1 to 8 pic50.

B1: Hex-[Cys(3MeBn)-Pro-Pro-Thr-Gln-Phe-Cys]-Asp-NH2 (peptide)
peptide: Hexanoyl-CPPTQFCD-NH2
modifications: linker 1-7 via mXylylene
SMILES: CCCCCC(=O)N[C@H]1CSCc2cccc(c2)CSC[C@@H](C(=O)N[C@@H](CC(=O)O)C(N)=O)NC(=O)[C@H](Cc2ccccc2)NC(=O)[C@H](CCC(N)=O)NC(=O)[C@H]([C@@H](C)O)NC(=O)[C@@H]2CCCN2C(=O)[C@@H]2CCCN2C1=O
For the molecule B1, the “pIC50 (PREP)” value in experiment [3] was less than 6 pIC50. The “pIC50 (DPP4)” value in experiment [4] is less than 6 pIC50. For the same molecule, in experiment [5], the “pKD Category” value was greater than 8 pKD.

B2: N4Ac-Glu(AGLU′)-Ttds-Nle-[Cys-(3MeBn)-Pro-Pro-Thr-Glu-Phe-Cys]-OH (peptide)
peptide: N4Ac-E[Ttds″][Nle]CPPTEFC-OH
modifications: linker 4-10 via 3MeBn; not fully specified (residue 1); printed as N4Ac--E(AGLU)--Ttds--Nle--[C(3MeBn)-PPTEFC]-OH
notes: also called 3BP-4249
B2: the pIC50 in experiment [2] was 7.1 to 8 pic50. Also, the “pKD Category” value in experiment [5] was greater than 8 pKD.

B3: Hex-[C(tMeBn(GaNOPO-AET))-PPTEFC]-OH (peptide)
peptide: Hexanoyl-CPPTEFC-OH
modifications: linker 1-7 via tMeBn(GaNOPO-AET); also: gallium-NOPO chelator-AET arm on the linker
notes: also called 3BP-4816
Molecule B3 had a pIC50 in experiment [1] of 7.1 to 8 pic50.

In experiment [1], Hexanoyl-CPPTEFC-OH (linker 1-7 via tMeBn(NOPO-AET), also called 3BP-4818) [Hex-[C(tMeBn(NOPO-AET))-PPTEFC]-OH] showed a pIC50 of 7.1 to 8 pic50. Same read-out and setting: the figure for CPPTEFC (N-term Hex-; Cys1 and Cys7 thioether-bridged by tMeBn(NODAGA-AET); C-term -OH, also called 3BP-4695) [Hex-[C(tMeBn(NODAGA-AET))-PPTEFC]-OH] is 7.1 to 8 pic50.

B4: Hex-[Cys(3MeBn)-Pro-Pro-Thr-Glu-Phe-Cys]-Asp-His-Nmf-Arg-Ttds-Lys(DOTA)-NH2 (peptide)
peptide: Hexanoyl-CPPTEFCDH[NMeF]R[Ttds″]K(DOTA)-NH2
modifications: linker 1-7 via mXylylene
SMILES: CCCCCC(=O)N[C@H]1CSCc2cccc(c2)CSC[C@@H](C(=O)N[C@@H](CC(=O)O)C(=O)N[C@@H](Cc2c[nH]cn2)C(=O)N(C)[C@@H](Cc2ccccc2)C(=O)N[C@@H](CCCNC(=N)N)C(=O)NCCCOCCOCCOCCCNC(=O)CCC(=O)N[C@@H](CCCCNC(=O)CN2CCN(CC(=O)O)CCN(CC(=O)O)CCN(CC(=O)O)CC2)C(N)=O)NC(=O)[C@H](Cc2ccccc2)NC(=O)[C@H](CCC(=O)O)NC(=O)[C@H]([C@@H](C)O)NC(=O)[C@@H]2CCCN2C(=O)[C@@H]2CCCN2C1=O
notes: also called 3BP-3275
Turning to B4, the “pIC50 (PREP)” value in experiment [3] was less than 6 pIC50. In addition, the “pIC50 (DPP4)” value in experiment [4] was less than 6 pIC50. The “pKD Category” value in experiment [5] was greater than 8 pKD.

B5: N4Ac-Glu(AGLU′)-Glu(AGLU′)-Ttds-Nle-[Cys-(3MeBn)-Pro-Pro-Thr-Glu-Phe-Cys]-OH (peptide)
peptide: N4Ac-E(AGLU′)E(AGLU′)[Ttds″][Nle]CPPTEFC-OH
modifications: linker 5-11 via 3MeBn(3); reading uncertain; also: printed as N4Ac-Glu(AGLU′)-Glu(AGLU′)-Ttds-Nle-[Cys-(3MeBn)-Pro-Pro-Thr-Glu-Phe-Cys]-OH
notes: also called 3BP-4266
B5 yielded a pIC50 in experiment [2] of 7.1 to 8 pic50. Regarding Hexanoyl-CPPTQFCD-NH2 (linker 1-7 via tMeBn(H-AET), also called 3BP-3981) [Hex-[Cys-(tMeBn(H-AET))-Pro-Pro-Thr-Gln-Phe-Cys]-Asp-NH2], the “pIC50 Category (Activity)” value in experiment [6] is greater than 8 pIC50. In addition, in experiment [2], the pIC50 was 7.1 to 8 pic50.
